Measured values reported in publication PMC8717395 (JACS Au, 2021).
Blank lines part the entries; values can stand above or below the molecule they belong to.

What was measured:
[1] = target: NAD+-dependent formate dehydrogenase from Starkeya novella (Starkeya novella)
purified protein [2] = substrate: NC(=S)c1ccc[n+]([C@@H]2O[C@H](COP(=O)(O)OP(=O)(O)OC[C@H]3O[C@@H](n4cnc5c(N)ncnc54)[C@H](OP(=O)(O)O)[C@@H]3O)[C@@H](O)[C@H]2O)c1; assay: purified protein; conditions: 15.0 mM NADH; buffer B; substrate inhibition term in fit
purified protein [3] = substrate: O=CO; assay: purified protein; conditions: 2.0 mM NAD+, buffer B, 30 °C
purified protein [4] = substrate: NC(=O)c1ccc[n+]([C@@H]2O[C@H](COP(=O)([O-])OP(=O)(O)OC[C@H]3O[C@@H](n4cnc5c(N)ncnc54)[C@H](O)[C@@H]3O)[C@@H](O)[C@H]2O)c1; assay: purified protein; conditions: 20 mM formate, buffer B, 30 °C
[5] = target: the molecule itself

stoichiometry N [1]: 2
Molecule: NAD+-dependent formate dehydrogenase from Starkeya novella (enzyme)

B1: SthA (Escherichia coli K-12) (protein)
chain: PHSYDYDAIVIGSGPGGEGAAMGLVKQGARVAVIERYQNVGGGCTHWGTIPSKALRHAVSRIIEFNQNPLYSDHSRLLRSSFADILNHADNVINQQTRMRQGFYERNHCEILQGNARFVDEHTLALDCPDGSVETLTAEKFVIACGSRPYHPTDVDFTHPRIYDSDSILSMHHEPRHVLIYGAGVIGCEYASIFRGMDVKVDLINTRDRLLAFLDQEMSDSLSYHFWNSGVVIRHNEEYEKIEGCDDGVIMHLKSGKKLKADCLLYANGRTGNTDSLALQNIGLETDSRGQLKVNSMYQTAQPHVYAVGDVIGYPSLASAAYDQGRIAAQALVKGEATAHLIEDIPTGIYTIPEISSVGKTEQQLTAMKVPYEVGRAQFKHLARAQIVGMNVGTLKILFHRETKEILGIHCFGERAAEIIHIGQAIMEQKGGGNTIEYFVNTTFNYPTMAEAYRVAALNGLNRLF
Km (purified protein [2]): 30 µM
kcat (purified protein [2]): 19.9 s⁻¹

B2: Fdh (Ancylobacter novellus DSM 506) (protein)
chain: MAKILCVLYDDPVDGYPKTYARDDLPKIDHYPGGQTLPTPKAIDFTPGALLGSVSGELGLRKYLEANGHTFVVTSDKDGPDSVFERELVDADVVISQPFWPAYLTPERIAKAKNLKLALTAGIGSDHVDLQSAIDRGITVAEVTYCNSISVAEHVVMMILGLVRNYIPSHDWARKGGWNIADCVEHSYDLEGMTVGSVAAGRIGLAVLRRLAPFDVKLHYTDRHRLPEAVEKELGLVWHDTREDMYPHCDVVTLNVPLHPETEHMINDETLKLFKRGAYIVNTARGKLADRDAIVRAIESGQLAGYAGDVWFPQPAPKDHPWRTMKWEGMTPHISGTSLSAQARYAAGTREILECFFEGRPIRDEYLIVQGGALAGTGAHSYSKGNATGGSEEAAKFKKAG
Km (purified protein [3]): 2150 µM
kcat (purified protein [3]): 0.87 s⁻¹
Km (purified protein [4]): 110 µM
kcat (purified protein [4]): 1.08 s⁻¹

B3: soluble pyridine nucleotide transhydrogenase SthA from E. coli (enzyme, E. coli K-12, UniProt P27306 1-466, looked up)
chain: MPHSYDYDAIVIGSGPGGEGAAMGLVKQGARVAVIERYQNVGGGCTHWGTIPSKALRHAVSRIIEFNQNPLYSDHSRLLRSSFADILNHADNVINQQTRMRQGFYERNHCEILQGNARFVDEHTLALDCPDGSVETLTAEKFVIACGSRPYHPTDVDFTHPRIYDSDSILSMHHEPRHVLIYGAGVIGCEYASIFRGMDVKVDLINTRDRLLAFLDQEMSDSLSYHFWNSGVVIRHNEEYEKIEGCDDGVIMHLKSGKKLKADCLLYANGRTGNTDSLALQNIGLETDSRGQLKVNSMYQTAQPHVYAVGDVIGYPSLASAAYDQGRIAAQALVKGEATAHLIEDIPTGIYTIPEISSVGKTEQQLTAMKVPYEVGRAQFKHLARAQIVGMNVGTLKILFHRETKEILGIHCFGERAAEIIHIGQAIMEQKGGGNTIEYFVNTTFNYPTMAEAYRVAALNGLNRLF
stoichiometry N [5]: 8
